Laboratory results reported in publication PMC4148453.
Several values for one entry are separate records, joined by “and”; a condition that tells them apart may be missing. Equal entries are not always repeated.

Legend:
Assay in all cases: EMSA
Details in all cases: 10 mM Tris-Cl pH 8.0, 1 mM DTT, 10% glycerol, 5 mM MgCl2, 10 mM KCl, with 50 mM acetyl phosphate when indicated; EMSA 30 min at 37 C; footprint at room …
[1] = system: 6His-BfmR (Pseudomonas aeruginosa MPAO1)
[2] = system: 6His-BfmR (Pseudomonas aeruginosa MPAO1); remark: listed apart in the source
[3] = system: 6His-BfmR D55A (Pseudomonas aeruginosa MPAO1)

bfmR promoter
Kd [1]: 200 nM and > 600 nM
Kd [2]: < 400 nM
Kd [3]: > 600 nM
